Experimental data from the Human Domainome abundance scans (Beltran et al. 2025).

B1: Transcription elongation regulator 1-like protein, residues 448 to 504; numbered along this chain, Q5VWI1 (parent)
chain: LPLEERVTHFRDMLLERGVSAFSTWEKELHKIVFDPRYLLLNSEERKQIFEQFVKTR
B2: Nanos homolog 2, residues 63 to 115; numbered along this chain, P60321 (parent)
chain: CNFCKHNGESRHVYSSHQLKTPDGVVVCPILRHYVCPVCGATGDQAHTLKYCP

Variants of: B1
Assay: abundance fitness (aPCA) (normalised: wild type 0, dead -1); higher = more abundant; growth selection in yeast, the domain comes from the species named
Conditions: Homo sapiens

Abundance fitness of substitutions, site by site:
T56: D 0.635 | C -0.214 | S -0.017 | K -0.078 | W -0.482 | G -0.303 | L -0.311 | V -0.477 | E 0.336 | N 0.05 | I -0.034 | A 0.035 | R -0.456 | Q 0.022 | P 0.109
E44: M 0.253 | Q -0.143 | W -0.22 | I 0.179 | V -0.159 | C -0.195 | L -0.211 | F -0.21 | D 0.27 | K 0.094 | S -0.187 | R -0.201 | G -0.211 | P -0.606 | Y -0.42 | H -0.415 | T -0.105
Q48: G -0.237 | M -0.002 | C -0.227 | S -0.139 | N 0.751 | W -0.05 | L -0.082 | D 0.297 | E 0.006 | R -0.165 | V -0.065 | A -0.036 | I -0.213 | K -0.31
N42: L -0.529 | K -0.109 | C -0.437 | S 0.034 | M -0.687 | Q 0.013 | E -0.023 | A -0.571 | D 0.035 | T -0.325 | V -0.924 | P -0.533 | W -0.733
E45: L -0.067 | Y -0.557 | R -0.434 | V -0.858 | W -0.483 | G -0.427 | P -0.791 | T -0.515 | S -0.514 | H -0.204 | Q -0.004 | M -0.107 | I -0.242
V54: P -0.811 | A -0.451 | D -0.32 | E -0.821 | M -0.505 | C -0.303 | K -0.396 | S -0.222 | R -0.348 | G -0.632 | W -0.624 | F -0.082 | T -0.093 | I -0.199
R46: V -0.436 | C -0.657 | T -0.815 | Y -0.162 | G -0.39 | F -0.533 | L -0.697 | A -0.057 | S -0.644 | W -0.012 | K -0.429
F50: T -0.924 | G -0.759 | E -0.69 | V -0.833 | A -0.887 | K -0.835 | L -0.413 | M -0.605 | R -0.714 | D -0.624 | N 0.347 | Y 0.082 | Q -0.866 | W -0.17
L40: A -0.504 | P -0.688 | S -0.619 | V -0.877 | D -1.05 | E -0.466 | W -0.639 | K -0.966 | G -0.349 | M -0.295
Q52: C -0.402 | Y -0.804 | H -0.426 | N -0.506 | V -0.526 | S -0.151 | L -0.435 | I -0.592 | F -0.922 | E 0.114 | P -0.618 | W -0.621 | A -0.395 | K -0.238 | D 0.193 | T -0.33 | M -0.428
E51: H -0.077 | A 0.047 | T -0.281 | L -0.522 | M -0.413 | F -0.288 | R -0.594 | I -0.632 | Y -0.375 | G -0.618 | W -0.766 | D -0.04 | N -0.147 | K -0.278 | S -0.28 | V -0.669 | C -0.96 | P -0.929 | Q -0.255
P36: D -0.584 | W -0.011 | R -0.504 | T -0.604 | G -0.514 | S -0.488 | K 0.011 | V -0.717 | L -0.714 | E -0.409
R37: W -0.733 | E -0.917 | M -0.81 | V -0.564 | G -0.692 | P -0.769 | L -0.952 | Q -0.829 | A -1.19 | C -0.75
I49: A -0.517 | P -0.886 | D 0.515 | E -0.3 | C -0.261 | V 0.082 | W -0.743 | G -0.643 | T 0.117 | S -0.669 | Y 0.129 | L 0.035 | M -0.599 | Q 0.437 | R -0.782
K47: G -0.31 | T -0.73 | W -0.602 | I 0.151 | R 0.025 | P -0.783 | C -0.165 | H -0.109 | F -0.04 | S -0.627 | Q 0.159 | E -0.58 | L -0.286 | A -0.381 | V -0.501 | D -0.747
S43: L -0.065 | V -0.309 | N -0.367 | E 0.341 | M -0.134 | F -0.328 | Q 0.07 | R -0.156 | G 0.034 | A 0.016 | W -0.424 | T -0.197 | K -0.145
F53: T -0.964 | W -0.05 | V -0.797 | Y 0.15 | H -0.466 | C -0.828 | R -0.837 | S -0.718 | E -0.964 | G -0.368 | A -0.949 | L -0.747
Y38: G -0.786 | P -0.653 | R -0.669 | T -0.69 | V -0.767 | F -0.129 | L -0.5 | Q -0.668 | M -0.801 | W -1.06 | S -0.898 | K -0.275 | A -0.815 | I -0.645
L41: K -1.11 | Y -0.755 | C -0.734 | R -0.616 | A -0.681 | P -0.917 | F -0.583 | D -1.04 | G -0.569 | M -0.335 | I -0.409 | E -0.781 | H -0.543 | V -0.226 | T -0.592 | Q -0.473 | N -0.755
K55: N -0.267 | E 0.209 | P -1.19 | Y -0.667 | D -0.514 | L -0.124 | H -0.218 | S -0.04 | G -0.278 | T 0.212 | W -0.543 | C -0.382 | M 0.06 | A -0.266 | Q -0.19

Variants of: B2
Assay: as above
Conditions: Homo sapiens

Abundance fitness of substitutions, site by site:
C1: F -0.347 | G -0.554 | L -0.745 | S -0.337 | Y -0.762 | W -0.941
N2: A -0.823 | E -0.663 | T -0.408 | K -0.255 | R -0.768 | F -0.324 | G -0.484 | L -0.864 | P -0.812 | V -0.819 | C -0.701 | Y -0.254 | I -0.157 | M -0.861 | H -0.647 | D -0.359 | W -0.759
F3: K -1.44 | D -0.701 | Q -0.933 | T -0.988 | W -0.709 | Y -0.117 | H -0.502 | C -0.632 | P -1.3 | L -0.576 | N -0.877 | M -1.06 | I -0.399 | R -0.848 | V -1.01 | E -1.22 | S -0.623 | G -1.2
C4: G -0.802 | K -0.63 | T -0.879 | S -0.635 | R -0.933 | F -0.423 | P -0.693 | E -0.867 | L -1 | M -1 | Q -0.959 | A -1.06 | H -0.688 | N -0.694
